Experiment [1] concerns the target T1, cyno MAdCAM (cynomolgus).
T1 construct: also called cynomolgus MAdCAM
Kind of experiment: BLI (Octet), binder on anti-human Fc tips. (BLI is a label-free optical method that tracks binding on a fibre tip over time.)

The target of experiment [2] is T2, human MAdCAM (human, UniProt Q13477 19-317, limits assumed).
T2 construct: also called huMAdCAM; human MAdCAM-1
T2 sequence (looked up): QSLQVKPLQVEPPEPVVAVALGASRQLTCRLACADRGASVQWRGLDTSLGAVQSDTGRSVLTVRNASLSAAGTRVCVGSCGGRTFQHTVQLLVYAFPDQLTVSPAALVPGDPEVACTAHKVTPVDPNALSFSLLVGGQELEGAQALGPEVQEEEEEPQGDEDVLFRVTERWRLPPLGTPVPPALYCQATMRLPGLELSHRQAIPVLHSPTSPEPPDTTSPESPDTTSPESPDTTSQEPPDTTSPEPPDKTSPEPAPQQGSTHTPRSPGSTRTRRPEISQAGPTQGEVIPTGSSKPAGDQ
Kind of experiment: BLI (Octet), binder on anti-human Fc tips.

Experiment [3] addresses T1, cyno MAdCAM. The experiment can be described thus: BLI (Octet).
For experiment [4], the target named is T2, human MAdCAM. The experiment can be described thus: BLI (Octet).
The target in experiment [5] is T3, mouse MAdCAM (mouse, UniProt Q61826 22-365, limits assumed).
T3 construct: also called mouse MAdCAM-1; muMAdCAM
T3 sequence (looked up): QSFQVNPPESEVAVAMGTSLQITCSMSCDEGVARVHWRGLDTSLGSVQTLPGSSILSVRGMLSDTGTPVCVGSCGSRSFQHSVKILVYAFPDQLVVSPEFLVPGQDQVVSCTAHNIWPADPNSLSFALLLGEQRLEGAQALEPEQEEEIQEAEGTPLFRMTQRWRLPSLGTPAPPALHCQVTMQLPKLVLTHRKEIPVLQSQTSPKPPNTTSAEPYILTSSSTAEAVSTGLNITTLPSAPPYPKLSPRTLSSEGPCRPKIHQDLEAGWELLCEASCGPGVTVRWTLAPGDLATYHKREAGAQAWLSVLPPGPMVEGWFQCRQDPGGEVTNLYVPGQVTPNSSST
Kind of experiment: BLI (Octet).

Experiment [6] concerns the target T3, mouse MAdCAM. The experiment can be described thus: BLI (Octet), binder on anti-human Fc tips.

Values joined by “and” are separate entries in the source; they are usually repeats but may differ in a detail not shown here. Equal values may be shown once.

B1: MIAB169 (antibody, V domains shown)
VH: EVQLLESGGGLVQPGGSLRLSCAASGFTFSDFWMHWVRQAPGKGLEWISYISGDSGYTNYADSVKGRFTISRDNSKNTLYLQMNSLRAEDTAVYYCARDRPYYYIMDVWGKGTTVTVSS
VL: DIQMTQSPSSLSASVGDRVTITCRASQSVSRSLAWYQQKPGKAPKLLIYAASSLQSGVPSRFSGSGSGTDFTLTISSLQPEDFATYYCQQYKSYPVTFGQGTKVEIK
notes: tested with human Fc; also called MIAB169-CHO; MIAB169-HEK
A word on the Kd: it is the constant that tells how readily two partners part at equilibrium. A higher Kd goes with weaker binding. The term koff denotes a measure of how fast the partners let go of each other. Low readings indicate slow dissociation, high ones fast dissociation. As a reminder, the kon is the second-order rate constant of association. Low readings indicate slow association, high ones fast association. With B1, in the experiment with cyno MAdCAM [1], binding was put at a Kd of 153 nM. Besides, in the experiment with human MAdCAM [2], the Kd was 266 nM and 340 nM; the “fold lower affinity than parent PRNT1” value is 10 fold; the koff is 0.0738 s⁻¹; the kon is 278000 M⁻¹ s⁻¹.

B2: MIAB124 (antibody, V domains shown)
VH: EVQLLESGGGLVQPGGSLRLSCAASGFTFSTDAMSWVRQAPGKGLEWSAISGSGGSTYSADSVKGRFTISRDNSKNTLYLQMNSLRAEDTAVYYCARARVDWNSYNDLWGQGTLVTVSS
VL: EIVMTQSPATLSVSPGERATLSCRASQSVNNKLAWYQQKPGQAPRLLIYAASTRATGIPARFSGSGSGTEFTLTISSLQSEDFAVYYCQQYSTWPITFGQGTKVEIK
notes: tested with human Fc
B2 gave a Kd in the experiment with cyno MAdCAM [1] of 11.5 nM. In other words, the double-digit nanomolar range.

B3: PMAB54 (bispecific antibody, human IgG1, kappa)
heavy: EVQLVQSGAEVKKPGASVKVSCKASGYSFTSYYMHWVRQAPGQGLEWMGIINPSGGSTSYAQKFQGRVTMTRDTSTSTVYMELSSLRSEDTAVYYCASGWVYWGQGTLVTVSSASTKGPSVFPLAPSSKSTSGGTAALGCLVKDYFPEPVTVSWNSGALTSGVHTFPAVLQSSGLYSLSSVVTVPSSSLGTQTYICNVNHKPSNTKVDKKVEPKSCDKTHTCPPCPAPEAAGAPSVFLFPPKPKDTLMISRTPEVTCVVVDVSHEDPEVKFNWYVDGVEVHNAKTKPREEQYNSTYRVVSVLTVLHQDWLNGKEYKCKVSNKALPAPIEKTISKAKGQPREPQVYTLPPSREEMTKNQVSLTCLVKGFYPSDIAVEWESNGQPENNYKTTPPVLDSDGSFFLYSKLTVDKSRWQQGNVFSCSVMHEALHNHYTQKSLSLSPGGGGGSGGGGSGGGGSEVQLLESGGGLVQPGGSLRLSCAASGFTFSSYWMHWVRQAPGKGLEWVSYISGSGGYTNYADSVKGRFTISRDNSKNTLYLQMNSLRAEDTAVYYCARDRPYYYDIDVWGKGTTVTVSSGGGGSGGGGSGGGGSGGGGSDIQMTQSPSSLSASVGDRVTITCRASQSISSSLAWYQQKPGKAPKLLIYAASSLQSGVPSRFSGSGSGTDFTLTISSLQPEDFATYYCQQYKSYPVTFGQGTKVEIK
light: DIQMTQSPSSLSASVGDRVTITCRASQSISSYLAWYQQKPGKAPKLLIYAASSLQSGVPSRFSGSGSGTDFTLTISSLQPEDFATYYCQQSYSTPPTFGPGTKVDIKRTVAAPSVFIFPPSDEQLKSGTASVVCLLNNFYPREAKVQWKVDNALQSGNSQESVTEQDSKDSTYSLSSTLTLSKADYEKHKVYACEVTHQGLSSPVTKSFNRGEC
B3: in the experiment with cyno MAdCAM [3], the Kd worked out at 158 nM, the koff is 0.0114 s⁻¹ and the kon came out at 71900 M⁻¹ s⁻¹. Besides, in the experiment with human MAdCAM [4], binding was characterised by a dissociation constant (Kd) of 592 nM, the koff worked out at 0.14 s⁻¹ and the kon was found to be 236000 M⁻¹ s⁻¹. In the experiment with mouse MAdCAM [5], this molecule returned a Kd of 248 nM, a koff of 0.00138 s⁻¹ and an association rate constant (kon) of 5570 M⁻¹ s⁻¹.

B4: PMAB57 (bispecific antibody, human IgG1, kappa)
heavy: QVQLVQSGAEVKKPGASVKVSCKASGYSFTTYYMHWVRQAPGQGLEWMGIIAPSGGSTSYAQKFQGRVTMTRDTSTSTVYMELSSLRSEDTAVYYCASGWVYWGQGTLVTVSSASTKGPSVFPLAPSSKSTSGGTAALGCLVKDYFPEPVTVSWNSGALTSGVHTFPAVLQSSGLYSLSSVVTVPSSSLGTQTYICNVNHKPSNTKVDKKVEPKSCDKTHTCPPCPAPEAAGAPSVFLFPPKPKDTLMISRTPEVTCVVVDVSHEDPEVKFNWYVDGVEVHNAKTKPREEQYNSTYRVVSVLTVLHQDWLNGKEYKCKVSNKALPAPIEKTISKAKGQPREPQVYTLPPSREEMTKNQVSLTCLVKGFYPSDIAVEWESNGQPENNYKTTPPVLDSDGSFFLYSKLTVDKSRWQQGNVFSCSVMHEALHNHYTQKSLSLSPGGGGGSGGGGSGGGGSEVQLLESGGGLVQPGGSLRLSCAASGFTFSDFWMHWVRQAPGKGLEWISYISGDSGYTNYADSVKGRFTISRDNSKNTLYLQMNSLRAEDTAVYYCARDRPYYYYMDVWGKGTTVTVSSGGGGSGGGGSGGGGSGGGGSDIQMTQSPSSLSASVGDRVTITCRASQSVSRSLAWYQQKPGKAPKLLIYAASSLQSGVPSRFSGSGSGTDFTLTISSLQPEDFATYYCQQYKSYPVTFGQGTKVEIK
light: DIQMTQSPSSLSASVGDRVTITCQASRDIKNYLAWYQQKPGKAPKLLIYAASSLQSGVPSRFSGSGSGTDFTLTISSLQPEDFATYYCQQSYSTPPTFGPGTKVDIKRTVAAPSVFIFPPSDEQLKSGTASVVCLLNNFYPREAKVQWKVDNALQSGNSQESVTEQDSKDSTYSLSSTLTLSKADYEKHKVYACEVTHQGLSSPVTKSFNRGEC
In the experiment with cyno MAdCAM [3], B4 gave a Kd of 49.9 nM, a koff of 0.0153 s⁻¹, a kon of 306000 M⁻¹ s⁻¹ and a response of 0.169. For the same molecule, in the experiment with human MAdCAM [4], the Kd was 122 nM, the koff turned out to be 0.0389 s⁻¹, the kon was 320000 M⁻¹ s⁻¹ and the response amounted to 0.18. In the experiment with mouse MAdCAM [5], this molecule returned a Kd of 205 nM, a koff of 0.0558 s⁻¹ and a kon of 272000 M⁻¹ s⁻¹.

B5: PMAB55 (bispecific antibody, human IgG1, kappa)
heavy: EVQLVQSGAEVKKPGASVKVSCKASGYSFTSYYMHWVRQAPGQGLEWMGIINPSGGSTSYAQKFQGRVTMTRDTSTSTVYMELSSLRSEDTAVYYCASGWVYWGQGTLVTVSSASTKGPSVFPLAPSSKSTSGGTAALGCLVKDYFPEPVTVSWNSGALTSGVHTFPAVLQSSGLYSLSSVVTVPSSSLGTQTYICNVNHKPSNTKVDKKVEPKSCDKTHTCPPCPAPEAAGAPSVFLFPPKPKDTLMISRTPEVTCVVVDVSHEDPEVKFNWYVDGVEVHNAKTKPREEQYNSTYRVVSVLTVLHQDWLNGKEYKCKVSNKALPAPIEKTISKAKGQPREPQVYTLPPSREEMTKNQVSLTCLVKGFYPSDIAVEWESNGQPENNYKTTPPVLDSDGSFFLYSKLTVDKSRWQQGNVFSCSVMHEALHNHYTQKSLSLSPGGGGGSGGGGSGGGGSEVQLLESGGGLVQPGGSLRLSCAASGFTFSSYWMHWVRQAPGKGLEWVSYISGSGGYTNYADSVKGRFTISRDNSKNTLYLQMNSLRAEDTAVYYCARDRPYYYDLDVWGKGTTVTVSSGGGGSGGGGSGGGGSGGGGSDIQMTQSPSSLSASVGDRVTITCRASQSISSSLAWYQQKPGKAPKLLIYAASSLQSGVPSRFSGSGSGTDFTLTISSLQPEDFATYYCQQYKSYPVTFGQGTKVEIK
light: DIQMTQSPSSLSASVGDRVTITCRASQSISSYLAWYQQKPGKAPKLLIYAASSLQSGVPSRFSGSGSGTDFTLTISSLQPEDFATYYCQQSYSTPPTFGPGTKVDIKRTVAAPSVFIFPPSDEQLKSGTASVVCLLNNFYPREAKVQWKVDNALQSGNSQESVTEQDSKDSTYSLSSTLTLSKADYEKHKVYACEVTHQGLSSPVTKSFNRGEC
In the experiment with cyno MAdCAM [3], B5 came in with a Kd of 44.3 nM, a koff of 0.00924 s⁻¹ and a kon of 209000 M⁻¹ s⁻¹. Moreover, in the experiment with human MAdCAM [4], binding was characterised by a dissociation constant (Kd) of 47.6 nM, the koff came to 0.00163 s⁻¹ and the kon was 34300 M⁻¹ s⁻¹. Also, in the experiment with mouse MAdCAM [5], the Kd came out at 59.5 nM, the koff was found to be 0.00131 s⁻¹ and the on-rate (kon) came to 22000 M⁻¹ s⁻¹.

B6: MIAB1 (antibody, V domains shown)
VH: EVQLLESGGGLVQPGGSLRLSCAASGFTFDDYAMHWVRQAPGKGLEWVASITSSSAFIDYADSVKGRFTISRDNSKNTLYLQMNSLRAEDTAVYYCAREPVDWNSYFDLWGQGTLVTVSS
VL: EIVMTQSPATLSVSPGERATLSCRASQGISNSYLAWYQQKPGQAPRLLIYGASTRATGIPARFSGSGSGTEFTLTISSLQSEDFAVYYCQQYYTYPPTFGQGTKVEIK
notes: tested with human Fc
Take B6: the equilibrium dissociation constant (Kd) with cyno MAdCAM [1] is 26.5 nM; in the experiment with human MAdCAM [2], 38.4 nM; in the experiment with mouse MAdCAM [6], 184 nM.

B7: MIAB125 (antibody, V domains shown)
VH: EVQLLESGGGLVQPGGSLRLSCAASGFTFSNYAISWVRQAPGKGLEWSDISGSGGTTYYADSVKGRFTISRDNSKNTLYLQMNSLRAEDTAVYYCARERVDWNSYFDLWGQGTLVTVSS
VL: EIVMTQSPATLSVSPGERATLSCRASQGISNSYLAWYQQKPGQAPRLLIYGASTRATGIPARFSGSGSGTEFTLTISSLQSEDFAVYYCQQYYTYPPTFGQGTKVEIK
notes: tested with human Fc
B7 yielded a Kd with cyno MAdCAM [1] of 0.9 nM.

B8: MIAB2 (antibody, V domains shown)
VH: EVQLLESGGGLVQPGGSLRLSCAASGFTFDDYAMHWVRQAPGKGLEWVASITSSSAFIDYADSVKGRFTISRDNSKNTLYLQMNSLRAEDTAVYYCARERVDWNSYFDLWGQGTLVTVSS
VL: EIVMTQSPATLSVSPGERATLSCRASQGISNSYLAWYQQKPGQAPRLLIYGASTRATGIPARFSGSGSGTEFTLTISSLQSEDFAVYYCQQYYTYPPTFGQGTKVEIK
notes: tested with human Fc
With B8, the figures for the Kd with cyno MAdCAM [1], with human MAdCAM [2] and with mouse MAdCAM [6] were 18.8 nM, 23.2 nM and 147 nM, respectively.
